Paper PMC4653696

What was measured:
Test in all cases: FRET or BRET; 25 nM donor (AF555)-labelled octamers titrated with acceptor (AF647)-labelled octamers, serial dilutions from 100 nM; 45 mM KCl, 50 mM Tris-HCl pH 8.0; room temperature, 1 h equilibration; triplicate; PCA and curve fit; apparent Kd of end-to-end association of rods
[1] = biological target: Cdc11(E294C)-capped, otherwise Cys-less septin hetero-octamer (Cdc11-Cdc12-Cdc3-Cdc10-Cdc10-Cdc3-Cdc12-Cdc11) (S. cerevisiae) (UniProt P32458)
Sequence of Cdc11(E294C)-capped, otherwise Cys-less septin hetero-octamer (Cdc11-Cdc12-Cdc3-Cdc10-Cdc10-Cdc3-Cdc12-Cdc11) (S. cerevisiae) (P32458 whole entry C43F/C137A/C138A/E294C, chain 1 of 4): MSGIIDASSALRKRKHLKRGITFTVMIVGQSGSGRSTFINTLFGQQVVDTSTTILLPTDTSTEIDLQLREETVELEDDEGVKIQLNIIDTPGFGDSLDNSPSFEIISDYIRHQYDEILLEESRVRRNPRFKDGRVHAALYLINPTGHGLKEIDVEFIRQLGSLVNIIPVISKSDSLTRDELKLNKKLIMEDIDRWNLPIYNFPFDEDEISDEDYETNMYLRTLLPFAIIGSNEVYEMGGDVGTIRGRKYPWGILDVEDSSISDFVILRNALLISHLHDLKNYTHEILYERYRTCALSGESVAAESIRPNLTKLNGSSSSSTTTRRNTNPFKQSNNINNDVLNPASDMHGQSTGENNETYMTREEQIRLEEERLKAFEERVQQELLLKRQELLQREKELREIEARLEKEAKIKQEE
Sequence of Cdc11(E294C)-capped, otherwise Cys-less septin hetero-octamer (Cdc11-Cdc12-Cdc3-Cdc10-Cdc10-Cdc3-Cdc12-Cdc11) (S. cerevisiae) (P32468 whole entry C40A/C278S, chain 2 of 4, further chain): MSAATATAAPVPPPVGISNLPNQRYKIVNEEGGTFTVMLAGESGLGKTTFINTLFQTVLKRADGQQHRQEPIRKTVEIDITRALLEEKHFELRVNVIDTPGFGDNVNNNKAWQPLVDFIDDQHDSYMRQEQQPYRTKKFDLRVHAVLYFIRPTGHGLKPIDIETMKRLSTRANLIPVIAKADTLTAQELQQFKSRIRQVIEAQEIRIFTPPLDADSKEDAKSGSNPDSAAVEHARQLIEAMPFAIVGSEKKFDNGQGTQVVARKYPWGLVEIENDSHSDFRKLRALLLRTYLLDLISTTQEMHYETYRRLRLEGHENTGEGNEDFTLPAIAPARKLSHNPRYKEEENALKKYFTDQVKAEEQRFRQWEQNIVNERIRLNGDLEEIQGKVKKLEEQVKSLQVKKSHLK
Sequence of Cdc11(E294C)-capped, otherwise Cys-less septin hetero-octamer (Cdc11-Cdc12-Cdc3-Cdc10-Cdc10-Cdc3-Cdc12-Cdc11) (S. cerevisiae) (P32457 other isoform, or with tags, fused parts or gaps E294C, chain 3 of 4, further chain): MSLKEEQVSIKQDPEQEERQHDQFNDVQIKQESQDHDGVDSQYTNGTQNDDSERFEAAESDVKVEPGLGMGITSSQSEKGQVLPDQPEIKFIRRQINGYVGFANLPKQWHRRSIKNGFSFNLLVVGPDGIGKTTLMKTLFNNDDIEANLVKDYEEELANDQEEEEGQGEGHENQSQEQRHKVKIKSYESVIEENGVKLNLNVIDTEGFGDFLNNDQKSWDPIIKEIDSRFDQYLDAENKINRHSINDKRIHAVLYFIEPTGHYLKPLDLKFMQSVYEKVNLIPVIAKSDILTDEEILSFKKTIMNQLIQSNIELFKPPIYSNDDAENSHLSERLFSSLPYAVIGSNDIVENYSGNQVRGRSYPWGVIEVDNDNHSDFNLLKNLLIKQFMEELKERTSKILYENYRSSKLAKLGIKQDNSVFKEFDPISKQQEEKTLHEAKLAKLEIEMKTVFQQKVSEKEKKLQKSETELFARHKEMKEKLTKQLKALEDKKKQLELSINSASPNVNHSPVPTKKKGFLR
Sequence of Cdc11(E294C)-capped, otherwise Cys-less septin hetero-octamer (Cdc11-Cdc12-Cdc3-Cdc10-Cdc10-Cdc3-Cdc12-Cdc11) (S. cerevisiae) (P25342 whole entry C266S, chain 4 of 4, further chain): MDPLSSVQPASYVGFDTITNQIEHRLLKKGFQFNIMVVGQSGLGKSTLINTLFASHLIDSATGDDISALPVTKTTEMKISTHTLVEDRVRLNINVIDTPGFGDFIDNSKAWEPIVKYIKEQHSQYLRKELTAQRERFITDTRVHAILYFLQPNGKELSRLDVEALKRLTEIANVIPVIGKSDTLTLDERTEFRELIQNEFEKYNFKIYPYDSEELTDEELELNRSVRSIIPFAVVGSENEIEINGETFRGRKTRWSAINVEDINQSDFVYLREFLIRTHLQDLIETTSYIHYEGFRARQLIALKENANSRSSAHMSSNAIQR

[2] = biological target: Shs1(E344C)-capped, otherwise Cys-less septin hetero-octamer (Shs1-Cdc12-Cdc3-Cdc10-Cdc10-Cdc3-Cdc12-Shs1) (S. cerevisiae) (UniProt Q07657)
Sequence of Shs1(E344C)-capped, otherwise Cys-less septin hetero-octamer (Shs1-Cdc12-Cdc3-Cdc10-Cdc10-Cdc3-Cdc12-Shs1) (S. cerevisiae) (Q07657 whole entry C29V/C148S/E344C, chain 1 of 4): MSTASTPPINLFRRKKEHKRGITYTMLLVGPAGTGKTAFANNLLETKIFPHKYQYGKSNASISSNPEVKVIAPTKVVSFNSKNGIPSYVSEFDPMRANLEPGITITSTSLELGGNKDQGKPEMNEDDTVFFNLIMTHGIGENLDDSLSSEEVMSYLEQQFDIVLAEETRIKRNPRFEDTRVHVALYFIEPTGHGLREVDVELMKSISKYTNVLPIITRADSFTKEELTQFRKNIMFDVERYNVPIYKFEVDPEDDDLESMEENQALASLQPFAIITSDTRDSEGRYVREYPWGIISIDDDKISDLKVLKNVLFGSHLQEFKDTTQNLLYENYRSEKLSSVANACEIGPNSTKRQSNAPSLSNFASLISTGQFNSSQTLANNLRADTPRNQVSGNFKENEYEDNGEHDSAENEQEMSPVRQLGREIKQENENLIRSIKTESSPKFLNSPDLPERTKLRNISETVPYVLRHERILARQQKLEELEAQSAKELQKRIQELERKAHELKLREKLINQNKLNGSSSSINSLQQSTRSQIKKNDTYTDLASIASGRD
Sequence of Shs1(E344C)-capped, otherwise Cys-less septin hetero-octamer (Shs1-Cdc12-Cdc3-Cdc10-Cdc10-Cdc3-Cdc12-Shs1) (S. cerevisiae) (P32468 whole entry C40A/C278S, chain 2 of 4, further chain): as the sequence (P32468 whole entry C40A/C278S, chain 2 of 4, further chain) above
Sequence of Shs1(E344C)-capped, otherwise Cys-less septin hetero-octamer (Shs1-Cdc12-Cdc3-Cdc10-Cdc10-Cdc3-Cdc12-Shs1) (S. cerevisiae) (P32457 other isoform, or with tags, fused parts or gaps E344C, chain 3 of 4, further chain): as the sequence (P32457 other isoform, or with tags, fused parts or gaps E294C, chain 3 of 4, further chain) above
Sequence of Shs1(E344C)-capped, otherwise Cys-less septin hetero-octamer (Shs1-Cdc12-Cdc3-Cdc10-Cdc10-Cdc3-Cdc12-Shs1) (S. cerevisiae) (P25342 whole entry C266S, chain 4 of 4, further chain): as the sequence (P25342 whole entry C266S, chain 4 of 4, further chain) above

[3] = biological target: Shs1(E344C ΔCTE)-capped, otherwise Cys-less septin hetero-octamer (S. cerevisiae) (UniProt Q07657)
Sequence of Shs1(E344C ΔCTE)-capped, otherwise Cys-less septin hetero-octamer (S. cerevisiae) (Q07657 1-348 C29V/C148S/E344C, chain 1 of 4): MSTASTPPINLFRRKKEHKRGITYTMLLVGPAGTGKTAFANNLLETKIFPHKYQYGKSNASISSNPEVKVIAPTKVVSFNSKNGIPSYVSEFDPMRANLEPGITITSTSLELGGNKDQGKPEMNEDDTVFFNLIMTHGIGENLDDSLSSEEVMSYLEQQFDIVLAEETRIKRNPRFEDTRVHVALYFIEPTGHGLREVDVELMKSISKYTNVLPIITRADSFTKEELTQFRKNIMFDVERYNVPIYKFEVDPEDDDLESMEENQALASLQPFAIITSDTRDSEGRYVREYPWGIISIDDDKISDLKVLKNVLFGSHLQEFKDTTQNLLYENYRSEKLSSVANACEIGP
Sequence of Shs1(E344C ΔCTE)-capped, otherwise Cys-less septin hetero-octamer (S. cerevisiae) (P32468 whole entry C40A/C278S, chain 2 of 4, further chain): as the sequence (P32468 whole entry C40A/C278S, chain 2 of 4, further chain) above
Sequence of Shs1(E344C ΔCTE)-capped, otherwise Cys-less septin hetero-octamer (S. cerevisiae) (P32457 other isoform, or with tags, fused parts or gaps E344C, chain 3 of 4, further chain): as the sequence (P32457 other isoform, or with tags, fused parts or gaps E294C, chain 3 of 4, further chain) above
Sequence of Shs1(E344C ΔCTE)-capped, otherwise Cys-less septin hetero-octamer (S. cerevisiae) (P25342 whole entry C266S, chain 4 of 4, further chain): as the sequence (P25342 whole entry C266S, chain 4 of 4, further chain) above

[4] = biological target: Cdc11(E294C ΔCTE)-capped, otherwise Cys-less septin hetero-octamer (S. cerevisiae) (UniProt P32458)

Cdc11(E294C ΔCTE)-capped, otherwise Cys-less septin hetero-octamer (from UniProt P32458 1-305; P32468 1-407; P32457 1-520; P25342 1-322) (complex)
Kd [1]: 24.1 nM
Kd [2]: 22.2 nM
Kd [3]: 22.8 nM
Kd [4]: 17.7 nM
